Test results published in US8632989B1, “Mutant insulin degrading enzyme and methods of use” (University of Kentucky Research Foundation, priority 2011, dated 2014).

Molecular target: T1, Abz-GGFLRKHGQ-EDDnp (Rattus norvegicus, UniProt P35559)
T1 construct: hexahistidine (N); made in house; host or cells: Sf9 insect cells (baculovirus, pFastBac HTb)
T1 sequence (P35559 41-1019): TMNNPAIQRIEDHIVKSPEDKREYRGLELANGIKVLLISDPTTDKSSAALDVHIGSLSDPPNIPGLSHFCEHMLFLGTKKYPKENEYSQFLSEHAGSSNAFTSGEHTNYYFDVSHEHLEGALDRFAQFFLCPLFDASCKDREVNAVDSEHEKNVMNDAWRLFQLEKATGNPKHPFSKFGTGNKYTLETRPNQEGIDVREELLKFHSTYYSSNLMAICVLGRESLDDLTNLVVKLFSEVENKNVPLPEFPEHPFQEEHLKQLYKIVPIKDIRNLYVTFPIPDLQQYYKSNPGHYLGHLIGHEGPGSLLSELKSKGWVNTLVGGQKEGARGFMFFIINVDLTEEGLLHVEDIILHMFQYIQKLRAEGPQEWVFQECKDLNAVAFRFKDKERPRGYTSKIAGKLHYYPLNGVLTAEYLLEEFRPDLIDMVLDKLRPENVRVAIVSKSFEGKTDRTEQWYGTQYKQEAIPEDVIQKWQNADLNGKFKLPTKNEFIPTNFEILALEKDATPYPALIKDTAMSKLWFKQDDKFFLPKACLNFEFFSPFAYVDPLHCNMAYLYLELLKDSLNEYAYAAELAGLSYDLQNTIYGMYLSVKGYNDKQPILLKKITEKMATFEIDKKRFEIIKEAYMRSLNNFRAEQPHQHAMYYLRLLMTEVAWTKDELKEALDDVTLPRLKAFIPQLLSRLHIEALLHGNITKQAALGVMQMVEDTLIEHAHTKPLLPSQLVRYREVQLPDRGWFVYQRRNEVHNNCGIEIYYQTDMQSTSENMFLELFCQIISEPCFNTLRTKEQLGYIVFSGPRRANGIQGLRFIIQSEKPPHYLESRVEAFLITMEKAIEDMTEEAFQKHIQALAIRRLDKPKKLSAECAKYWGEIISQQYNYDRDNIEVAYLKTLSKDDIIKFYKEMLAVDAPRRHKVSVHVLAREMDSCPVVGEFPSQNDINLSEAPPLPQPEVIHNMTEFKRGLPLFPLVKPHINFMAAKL
Assay: Activation by ATP of Abz-[…]-EDDnp hydrolysis, IDE and ATP binding site mutants
Assay type: biochemical
Settings: 10 μM Abz-GGFLRKHGQ-EDDnp as substrate
Method: Activity was determined in 50 mM Tris-HCl, pH 7.4 with 10 μM Abz-[…]-EDDnp (SEQ ID NO:3) as substrate at the indicated concentrations of ATP (panel A), PPPi (panel B) or, TNP-ATP (panel C). Each reaction contained 0.5 μg of enzyme.
IDE activity was determined by measuring the increase in fluorescence that occurs when the enzyme cleaves the internally quenched fluorogenic substrate Abz-[…]-EDDnp (SEQ ID NO:3) at the R—K bond (Song et al., Journal of Biologial Chemistry 276, 1152-1155 (2001)). The reaction was followed on a SpectraMax Gemini XS fluorescence plate reader using an excitation and emission wavelengths of 318 nm and 419 nm, respectively. Initial velocities were determined using SoftMax Pro 4.0 and kinetic constants calculated using GraphPad Prism 4.0. ATPase activity was measured by following Pi release with acid-molybdate as described by Harder et al. (Harder et al., Biochemical Journal 298 (Pt 2), 395-401 (1994)).

B1: IDE: Native rat insulin degrading enzyme (SEQ ID NO:1), expressed as hexahistidine fusion protein in Sf9 insect cells (protein, listed as Rattus norvegicus)
chain: MRNGLVWLLHPALPSTLHSILGARPPPVKRLCGFPKQIYSTMNNPAIQRIEDHIVKSPEDKREYRGLELANGIKVLLISDPTTDKSSAALDVHIGSLSDPPNIPGLSHFCEHMLFLGTKKYPKENEYSQFLSEHAGSSNAFTSGEHTNYYFDVSHEHLEGALDRFAQFFLCPLFDASCKDREVNAVDSEHEKNVMNDAWRLFQLEKATGNPKHPFSKFGTGNKYTLETRPNQEGIDVREELLKFHSTYYSSNLMAICVLGRESLDDLTNLVVKLFSEVENKNVPLPEFPEHPFQEEHLKQLYKIVPIKDIRNLYVTFPIPDLQQYYKSNPGHYLGHLIGHEGPGSLLSELKSKGWVNTLVGGQKEGARGFMFFIINVDLTEEGLLHVEDIILHMFQYIQKLRAEGPQEWVFQECKDLNAVAFRFKDKERPRGYTSKIAGKLHYYPLNGVLTAEYLLEEFRPDLIDMVLDKLRPENVRVAIVSKSFEGKTDRTEQWYGTQYKQEAIPEDVIQKWQNADLNGKFKLPTKNEFIPTNFEILALEKDATPYPALIKDTAMSKLWFKQDDKFFLPKACLNFEFFSPFAYVDPLHCNMAYLYLELLKDSLNEYAYAAELAGLSYDLQNTIYGMYLSVKGYNDKQPILLKKITEKMATFEIDKKRFEIIKEAYMRSLNNFRAEQPHQHAMYYLRLLMTEVAWTKDELKEALDDVTLPRLKAFIPQLLSRLHIEALLHGNITKQAALGVMQMVEDTLIEHAHTKPLLPSQLVRYREVQLPDRGWFVYQRRNEVHNNCGIEIYYQTDMQSTSENMFLELFCQIISEPCFNTLRTKEQLGYIVFSGPRRANGIQGLRFIIQSEKPPHYLESRVEAFLITMEKAIEDMTEEAFQKHIQALAIRRLDKPKKLSAECAKYWGEIISQQYNYDRDNIEVAYLKTLSKDDIIKFYKEMLAVDAPRRHKVSVHVLAREMDSCPVVGEFPSQNDINLSEAPPLPQPEVIHNMTEFKRGLPLFPLVKPHINFMAAKL
modifications: hexahistidine tag; wild-type Insulin Degrading Enzyme (IDE) from rat
- activation by ATP: roughly 150 fold
